Results: patent US20150011431A1 (Scripps Research, published 2015)
Positions count from the first letter of the chain named. Names may count otherwise.

T1: CXCR1 (UniProt P25024 1-350, limits assumed)
T1 construct: whole, on cells; DiscoveRx cells engineered with a luminescent reporter enzyme for beta-arrestin recruitment; also called CXCR1-U2OS; U2OS-CXCR1
T1 sequence (looked up): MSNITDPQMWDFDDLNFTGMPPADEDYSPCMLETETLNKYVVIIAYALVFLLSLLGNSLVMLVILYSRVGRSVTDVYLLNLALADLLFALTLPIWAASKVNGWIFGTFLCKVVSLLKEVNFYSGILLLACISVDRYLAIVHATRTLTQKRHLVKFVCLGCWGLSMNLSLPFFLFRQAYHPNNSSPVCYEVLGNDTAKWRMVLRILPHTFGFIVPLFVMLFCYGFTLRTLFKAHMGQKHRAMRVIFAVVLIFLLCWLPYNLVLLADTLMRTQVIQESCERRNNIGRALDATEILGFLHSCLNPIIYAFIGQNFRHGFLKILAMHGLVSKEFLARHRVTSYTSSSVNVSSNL

B1: IgG with VH1-69+CDR3-IL8 (antibody)
VH: QVQLVQSGAEVKKPGSSVKVSCKASGGTFSSYAISWVRQAPGQGLEWMGGIIPIFGTANYAQKFQGRVTITADKSTSTAYMELSSLRSEDTAVYYCTSVHQETKKYQSPRSAKELRCQCIKTYSKPFHPKFIKELRVIESGPHCANTEIIVKLSDGRELCLDPKENWVQRVVEKFLKRAENSGSGSYTYNYEWHVDVWGQGLLVTVSSAS
light: not shown
notes: IgG; VH cloned before human IgG1 CH1-CH2-CH3 in HC pFuse; cell culture supernatant; also called VH1-69 BLVCDR3IL8
B2: IgG with VH1-24+CDR3-IL8 (antibody)
VH: QVQLVQSGAEVKKPGASVKVSCKVSGYTLTELSMHWVRQAPGKGLEWMGGFDPEDGETIYAQKFQGRVTMTEDTSTDTAYMELSSLRSEDTAVYYCTSVHQETKKYQSPRSAKELRCQCIKTYSKPFHPKFIKELRVIESGPHCANTEIIVKLSDGRELCLDPKENWVQRVVEKFLKRAENSGSGSYTYNYEWHVDVWGQGLLVTVSSAS
light: not shown
notes: IgG; VH cloned before human IgG1 CH1-CH2-CH3 in HC pFuse; cell culture supernatant; also called VH1-24 BLVCDR3IL8
B3: IgG with VH4-4+CDR3-IL8 (antibody)
VH: QVQLQESGPGLVKPSETLSLTCTVSGGSISSYYWSWIRQPAGKGLEWIGRIYTSGSTNYNPSLKSRVTMSVDTSKNQFSLKLSSVTAADTAVYYCTSVHQETKKYQSPRSAKELRCQCIKTYSKPFHPKFIKELRVIESGPHCANTEIIVKLSDGRELCLDPKENWVQRVVEKFLKRAENSGSGSYTYNYEWHVDVWGQGLLVTVSSAS
light: not shown
notes: IgG; VH cloned before human IgG1 CH1-CH2-CH3 in HC pFuse; also called VH4-4 BLVCDR3IL8
B4: BLV1H12 IgG (antibody)
VH: QVQLRESGPSLVKPSQTLSLTCTASGFSLSDKAVGWVRQAPGKALEWLGSIDTGGNTGYNPGLKSRLSITKDNSKSQVSLSVSSVTTEDSATYYCTSVHQETKKYQSCPDGYRERSDCSNRPACGTSDCCRVSVFGNCLTTLPVSYSYTYNYEWHVDVWGQGLLVTVSS
light: not shown
notes: also called ULcowV
B5: IgG with VH4-34+CDR3-IL8 (antibody)
VH: QVQLQQWGAGLLKPSETLSLTCAVYGGSFSGYYWSWIRQPPGKGLEWIGEINHSGSTNYNPSLKSRVTISVDTSKNQFSLKLSSVTAADTAVYYCTSVHQETKKYQSPRSAKELRCQCIKTYSKPFHPKFIKELRVIESGPHCANTEIIVKLSDGRELCLDPKENWVQRVVEKFLKRAENSGSGSYTYNYEWHVDVWGQGLLVTVSSAS
light: not shown
notes: IgG; VH cloned before human IgG1 CH1-CH2-CH3 in HC pFuse; cell culture supernatant; also called VH4-34 BLVCDR3IL8
B6: IgG with VH1-46+CDR3-IL8 (antibody)
VH: QVQLVQSGAEVKKPGASVKVSCKASGYTFTSYYMHWVRQAPGQGLEWMGIINPSGGSTSYAQKFQGRVTMTRDTSTSTVYMELSSLRSEDTAVYYCTSVHQETKKYQSPRSAKELRCQCIKTYSKPFHPKFIKELRVIESGPHCANTEIIVKLSDGRELCLDPKENWVQRVVEKFLKRAENSGSGSYTYNYEWHVDVWGQGLLVTVSSAS
light: not shown
notes: IgG; VH cloned before human IgG1 CH1-CH2-CH3 in HC pFuse; cell culture supernatant; also called VH1-46 BLVCDR3IL8
B7: IgG with VH4-34+CDR3-IL8_CDR1 Cow CDR2 Cow and light chain V1-51 CDR1 I29V, N32G (antibody)
heavy: not shown
light: QSVLTQPPSVSAAPGQKVTISCSGSSSNVGNGYVSWYQQLPGTAPKLLIYDNNKRPSGIPDRFSGSKSGTSATLGITGLQTGDEADYYCASAEDSSSNAVFGSGTTLTVLGQPKAAPSVTLFPPSSEELQANKATLVCLISDFYPGAVTVAWKADSSPVKAGVETTTPSKQSNNKYAASSYLSLTPEQWKSHRSYSCQVTHEGSTVEKTVAPTECS
notes: IgG, human IgG1 CH1-CH2-CH3; normalized to 10 nM; also called VH4-34 CDR3-IL8 CDR1-Cow & CDR2-Cow / V1-51 CDR1 I29V, N32G
B8: IgG with VH4-34+CDR3-IL8_CDR1 Cow CDR2 Cow and light chain V1-51 S2A, T5N, P8S, A12G, A13S, P14L (antibody)
heavy: not shown
light: B7 light with S2A, T5N, P8S, A12G, A13S, P14L, V29I, G32N
notes: IgG, human IgG1 CH1-CH2-CH3; normalized to 10 nM; also called VH4-34 CDR3-IL8 CDR1-Cow & CDR2-Cow / V1-51 S2A, T5N, P8S, A12G, A13S, P14L
B9: IgG with VH4-34+CDR3-IL8_CDR1 Cow and light chain V1-51 CDR2 DNNKRP to GDTSRA (antibody)
heavy: not shown
light: B7 light with V29I, G32N, D51G, N52D, N53T, K54S, P56A
notes: IgG, human IgG1 CH1-CH2-CH3; normalized to 10 nM; Only 'DNN (amino acids 51-53)' is printed; positions 54 and 56 are counted on from it
B10: IgG with VH4-34+CDR3-IL8_CDR1 Cow and light chain V1-51 CDR1 I29V, N32G (antibody)
heavy: not shown
light: B7 light
notes: IgG, human IgG1 CH1-CH2-CH3; normalized to 10 nM; also called VH4-34 CDR3-IL8 CDR1-Cow / V1-51 CDR1 I29V, N32G
B11: IgG with VH4-34+CDR3-IL8_CDR1 Cow CDR2 Cow and light chain V1-51 CDR2 DNNKRP to GDTSRA (antibody)
heavy: not shown
light: B7 light with V29I, G32N, D51G, N52D, N53T, K54S, P56A
notes: IgG, human IgG1 CH1-CH2-CH3; normalized to 10 nM
B12: IgG with VH4-34+CDR3-IL8_CDR1 Cow CDR2 Cow and light chain V1-51 CDR2 DNN to GDT (antibody)
heavy: not shown
light: B7 light with V29I, G32N, D51G, N52D, N53T
notes: IgG, human IgG1 CH1-CH2-CH3; normalized to 10 nM; also called VH4-34 CDR3-IL8 CDR1-Cow & CDR2-Cow / V1-51 CDR2 DNN to GDT
B13: IgG with VH4-34+CDR3-IL8_CDR1 Cow and light chain V1-51 S2A, T5N, P8S, A12G, A13S, P14L & DNN to GDT (antibody)
heavy: not shown
light: QAVLNQPSSVSGSLGQKVTISCSGSSSNIGNNYVSWYQQLPGTAPKLLIYGDTKRPSGIPDRFSGSKSGTSATLGITGLQTGDEADYYCASAEDSSSNAVFGSGTTLTVLGQPKAAPSVTLFPPSSEELQANKATLVCLISDFYPGAVTVAWKADSSPVKAGVETTTPSKQSNNKYAASSYLSLTPEQWKSHRSYSCQVTHEGSTVEKTVAPTECS
notes: IgG, human IgG1 CH1-CH2-CH3; normalized to 10 nM; also called VH4-34 CDR3-IL8 CDR1-Cow / V1-51 S2A, T5N, P8S, A12G, A13S, P14L & DNN to GDT
B14: IgG with VH4-34+CDR3-IL8_CDR1 G31D, Y32K and BLV1H12 light chain (antibody)
VH: B5 VH with G31D, Y32K
VL: QAVLNQPSSVSGSLGQRVSITCSGSSSNVGNGYVSWYQLIPGSAPRTLIYGDTSRASGVPDRFSGSRSGNTATLTISSLQAEDEADYFCASAEDSSSNAVFGSGTTLTVLGQPKSPPSVTLFPPSTEELNGNKATLVCLISDFYPGSVTVVWKADGSTITRNVETTRASKQSNSKYAASSYLSLTSSDWKSKGSYSCEVTHEGSTVTKTVKPSECS
notes: IgG, human IgG1 CH1-CH2-CH3; also called VH4-34 + CDR3-IL8 + E31D, Y32K
B15: IgG with VH4-34+CDR3-IL8_CDR2 Cow and BLV1H12 light chain (antibody)
VH: B5 VH with I48L, E50S, N52D, H53T, S54G, S56N, N58G
VL: B14 VL
notes: IgG, human IgG1 CH1-CH2-CH3; also called VH4-34 + CDR3-IL8 + Cow CDR2
B16: IgG with VH4-34+CDR3-IL8_CDR2 E50S and BLV1H12 light chain (antibody)
VH: B5 VH with E50S
VL: B14 VL
notes: IgG, human IgG1 CH1-CH2-CH3; also called VH4-34 + CDR3-IL8 + E50S
B17: IgG with VH4-34+CDR3-IL8_CDR1 Cow and BLV1H12 light chain (antibody)
VH: B5 VH with A23T, V24A, Y25S, G27F, F29L, G31D, Y32K, Y33A, W34V, S35G
VL: B14 VL
notes: IgG, human IgG1 CH1-CH2-CH3; also called VH4-34 + CDR3-IL8 + Cow CDR1

The binders below were run against T1, CXCR1 (assay: flow cytometry; fluorescence on CXCR1-U2OS cells over fluorescence on parental U2OS cells).
Description: (§1) In an exemplary method, BLV1H12 IgG comprising a CDR3 with an IL-8 insert (e.g., the IL-8 sequence replaced a portion of the CDR3) was evaluated for binding to CXCR1 expressing cells by flow cytometry. Briefly, a cell line expressing functionally validated CXCR1 derived from U2OS cells was obtained from DiscoveRx and cultured per manufacturer's instructions (Cat#93-0226C3, DiscoveRx Corporation, Freemont, Calif.). The parental cell line U2OS was obtained from ATCC and cultured under the same conditions as the CXCR1 cells. Cell culture supernatants were then tested for binding to cells by flow cytometry. The adherent U2OS or CXCR1-U2OS cells were dissociated with Accutase (Innovative Cell Technologies, Inc., San Diego, Calif.), neutralized with an equal volume of media containing 10% serum, centrifuged at 1000 g, and resuspended in PBS with 2% BSA. Next, cells were dispensed into microtiter plates to achieve between 30,000 to 300,000 cells per well, centrifuged again, and resuspended in cell culture supernatant containing expressed IgG, or a dilution of IgG-containing cell culture supernatant. A fluorescent-conjugated anti-Human Fc antibody was used to detect binding of the expressed antibody to cells.
(§2) Additionally, the human germline CDR3-IL8 IgGs described in Example 5 were evaluated for binding to CXCR1 expressing cells by flow cytometry as described above. IgG binding to CXCR1-U2OS cells is indicated by higher fluorescence values, but non-specific binding to U2OS parental cells is also detectable.

Binder | Ratio of CXCR1/Parental
B1 | 4
B2 | 4.3
B3 | 3.1
B4 | 1.9
B5 | 9.3
B6 | 1.1

What follows are binders tested against T1, CXCR1 (assay: flow cytometry, IgG-containing supernatant on CXCR1-U2OS cells, fluorescent anti-human Fc).
Description: as §1, §2

Binder | median fluorescence on CXCR1-U2OS [AFU]
B1 | 78
B2 | 23
B3 | 3080
B4 | 9
B5 | 648
B6 | 6

These binders were tested against T1, CXCR1 (assay: flow cytometry with 2 ug/ml heparin sulfate, IgG normalized to 10 nM; CXCR1-U2OS against parental U2OS cells).
Description: Cell culture supernatants were then tested for binding to cells by flow cytometry. The adherent U2OS or CXCR1-U2OS cells were dissociated with Accutase (Innovative Cell Technologies, Inc., San Diego, Calif.), neutralized with an equal volume of media containing 10% serum, centrifuged at 1000 g, and resuspended in PBS with 2% BSA. Next, cells were dispensed into microtiter plates to achieve between 30,000 to 300,000 cells per well, centrifuged again, and resuspended in cell culture supernatant containing expressed IgG, or a dilution of IgG-containing cell culture supernatant. A fluorescent-conjugated anti-Human Fc antibody was used to detect binding of the expressed antibody to cells.
In an exemplary method, variants of V1-51 were made by overlap PCR and subcloned into pFuse vector for expression as described in Example 4. […] These V1-51 variants were paired with heavy chains encoding VH4-34+CDR3-IL8 (SEQ ID NO: 430), VH4-34+CDR3-IL8_CDR1 Cow (SEQ ID NO: 432), VH4-34+CDR3-IL8_CDR2 Cow (SEQ ID NO: 433), or VH4-34+CDR3-IL8_CDR1 Cow CDR2 Cow, (SEQ ID NO: 436). Transfections and ELISA were carried out as described above, and flow cytometry was used to evaluate CXCR1 binding specificity as previously described, with the modification that cells were resuspended in 2% BSA in PBS plus 2 ug/ml Heparin sulfate, and IgGs were normalized to 10 nM during incubation on cells.

Binder | CXCR1 specificity
B7 | 11.8
B8 | 12.2
B9 | 8
B10 | 8.9
B11 | 6.9
B12 | 16.7
B13 | 6.8

Target: T1, CXCR1
Assay: flow cytometry; fluorescence on CXCR1-U2OS cells over fluorescence on parental U2OS cells
Remark: another data set of the same source
Description: as §1
In an exemplary method, certain residues in VH4-34 CDR1 and/or CDR2 were substituted with corresponding CDR1 and/or CDR2 residues from BLV1H12. Briefly, the pFuse vector encoding heavy chain VH4-34 CDR3-IL8 was modified by overlap PCR to replace all of CDR1 with sequence from BLV1H12 (VH4-34+CDR3-IL8_CDR1 Cow, SEQ ID NO: 432) or all of CDR2 with sequence from BLV1 H12 (VH4-34+CDR3-IL8_CDR2 Cow, SEQ ID NO: 433).

Binder | FACS CXCR1/Parental Ratio
B4 | 1.9
B5 | 9.3
B14 | 8.1
B15 | 8
B16 | 4
B17 | 2.1
